Test results taken from the DeepSol protein solubility set.

Test: soluble on expression in E. coli; label from the status in PepcDB or PDB records
In the case of “MDKIKVGLQYWIPQHALTRLVGKLASARAGSLTTAIIRWFIKQYNVNMDEALHSDPTHFKTFNEFFVRELKAGVRPIAEGEKVITHPADACVSQFGAIEYGKLIQAKGHTYSAQELLGGDAKLAEEFRDGDFATLYLSPRDYHRVHMPCDGTLRQMIYVPGDLFSVNPLTAENVPNLFARNERVVCIFDTEFGPMAQVLVGATIVGSIELVWAGTVTPPRGNTVYRWDYPANGNQAVVLKKGEEMGRFKLGSTVINLFAKQAIRFDDSMALGAPTRMGEPYAHQA”, the “soluble on expression in E. coli” value is reported as “soluble”.
With “MDKIYIHDMEFYGYHGVFPEENKLGQRFKVDLTVELDLKRAGESDDLEHSVNYGELFELCRKVVEDRTYKLVESIAENIATDILKQYESISRCTIKVIKPDPPIPGHYRAVAVEITRERP” the “soluble on expression in E. coli” value was “not soluble”.
For “MDKKQVTDLRSELLDSRFGAKSISTIAESKRFPLHEMRDDVAFQIINDELYLDGNARQNLATFCQTWDDENVHKLMDLSINKNWIDKEEYPQSAAIDLRCVNMVADLWHAPAPKNGQAVGTNTIGSSEACMLGGMAMKWRWRKRMEAAGKPTDKPNLVCGPVQICWHKFARYWDVELREIPMRPGQLFMDPKRMIEACDENTIGVVPTFGVTYTGNYEFPQPLHDALDKFQADTGIDIDMHIDAASGGFLAPFVAPDIVWDFRLPRVKSISASGHKFGLAPLGCGWVIWRDEEALPQELVFNVDYLGGQIGTFAINFSRPAGQVIAQYYEFLRLGREGYTKVQNASYQVAAYLADEIAKLGPYEFICTGRPDEGIPAVCFKLKDGEDPGYTLYDLSERLRLRGWQVPAFTLGGEATDIVVMRIMCRRGFEMDFAELLLEDYKASLKYLSDHPKLQGIAQQNSFKHT”, the “soluble on expression in E. coli” value was “soluble”.
With “MDKKVYNTYVSILKNELVVALGCTEPIAIAYAGAKVREVLEAMPDRCEINCSGNIVKNVKGVTVPNSGGMKGIDTAATLGIVGGNVKRILAVLEDITPEQIETTQKLVKEGFCSCGLIEGVENLYIIITAYAGEESATVEIRDYHSNITKIVKNGKIIFSTDDEQSEQSSGPDKSLLNVKDILEFADCVDLSDISEVISRQIECNTAISQEGLNNPWGAQVGRTLLDTFGSDVAIRAKAAAAAGSDARMSGCPMPVVINSGSGNQGMTVSLPIIEYAKEYNISDEGLYRALVAGNLISLHQKKYIGSLSAYCGAVSAACGSGVGIAYMLGASYDEICGIITDTIATIGGMVCDGAKPSCAAKIASAVDCALTAFHLSKNKRVFQPGEGLVKETVEDTIQSIGRMGREGMKATDIEILNIMLEN” the “soluble on expression in E. coli” value was “not soluble”.
For “MDKTNLGELINQGKSLLDESVEGFNVGEYHKGAKDGLTVEINKAEEVFNKEDATEEEINLAKESLEGAIARFNSLLIEESTGDFNGNGKIDIGDLAMVSKNIGSTTNTSLDLNKDGSIDEYEISFINHRILNLEHHHHHH”, the “soluble on expression in E. coli” value was “soluble”.
For “MDLADLMEVENGDHSINQKHVQITFFSKDEEIPQIPDAVFDVPTGAECDDMNLLLNKTIEANDGAWKERRFEFLVGETFLRTSLAEFIEEYEVETETILKVECVIGIEAPKPLHDIQAPDWVSSVQIANGHIFSTTYGGDIVIVDRKGKETKLAVNSANRLLKCISIVKAPSKKNQLDGTEFVVGGENQLLTLYAIEKGALVEKLILRGHERAVECVSVNSDSTRAISGSVDTNLKIWNLDASDEATTYEKEEEEESAKKRRKKETKTKVPMVTIGGHRDKVSAVEWCPWNSGHAFSCSWDHTIVEWDLELAGEISRIKGPKSFTSIDLHPKSDLLISSCTDAIPRLYDPKNRDGSMVKQSFIGHQNGWVEAVKWNPLDTNQFVSVSTDKTAKMWDVRSSKSSLFDIHGHDDRILCATWNEGLIATGSADCTIKIFETA”, the “soluble on expression in E. coli” value was “not soluble”.
With “MDLFPVLKELAQKTPSKILLIVLDGVGGLPLEPGGPTELEAAKTPNLDRLAEESALGLLTPVYPGLAPGSGPGHLALFGYDPFRYVVGRGALSALGLGADFREGDVALRGNFATLDPEGKVVDRRAGRPPTEENQRVIAKLKEAIPRIEDVEVLFYTESEHRFLVILRGEGLEDKVTDTDPQKTGLPPLKAKALDEASERTARLVNLLSERIREVLKDEPRMNGALFRGASKKPSFPRMQEVYKLTPAAIASYPMYKGLASLVGMEVLPVEGEGDALEGKLKALKENWGRYDFFYFHVKKTDAMGEDGNFHGKVEKVELFDALLPEILALGPDVLAITGDHSTPALLKAHSWHPVPLLLKAPYLRADEARRFTEREAQRGSLGHLRGVELMPLLLAHAGKLLKYGA” the “soluble on expression in E. coli” value was “soluble”.
In the case of “MDLKKLLPCGKVIVFRKGEIVKHQDDPIEDVLILLEGTLKTEHVSENGKTLEIDEIKPVQIIASGFIFSSEPRFPVNVVAGENSKILSIPKEVFLDLLMKDRELLLFFLKDVSEHFRVVSEKLFFLTTKTLREKLMNFLVRHMNEKRELTLPVTLEELSRLFGCARPALSRVFQELEREGYIEKHGRRIKVLKNPFEHDRI”, the “soluble on expression in E. coli” value is reported as “not soluble”.
With “MDLSSLEIFRAVAHEASVTRAAQRLQRAQSNVTTRIRQLEEDLGVELFLRDGKRMSLTERGSEFLAYAEQLLALADEARQSMHPAEPGGRLRLGSMESTAASRLPALLASYHKACPRVALEVSTGTSHALFDGVRARRLDCALVAAGPGWAGELDGSGLRGEPLFREELLMILPAEHPPVHDVAEVRLRTLAGFARGCTYRQLAEDSLGTPLTVQEVGSYHAILACVAAGACVGVLPRSVLQLLGTPPLRSLPLAEVDTWLVWREGYATAAFERWRGVLGQAGD” the “soluble on expression in E. coli” value was “not soluble”.
For “MDMESQKILFALSTPMEIRNECCLPSHSSPKMYLGTCFFDLSSSWGIDDRDDLLRTIHRMIDNGHAARLAGFYHRWFRYSPCEWRDYLAELNEQGQAYAQFVASTAECCGEGGIKAWDYVRMGFLSRMGVLNNWLSEEESLWIQSRIHLRALRYYSNWRQYFAGYTFGRQYWQSPEDDHLPLLREFLARKEYDDSGNDMFYQLFASDDAYYPTLSWQPLAYYSACPETLKDMSDL”, the “soluble on expression in E. coli” value was “not soluble”.
In the case of “MDMGLREMCVGEKRTVIIPPHLGYGEAGVDGEVPGSAVLVFDIELLELVAGLPEGYMFIWNGEVSPNLFEEIDKDGNGEVLLEEFSEYIHAQVASGKGKLAPGFDAELIVKNMFTNQDRNGDGKVTAEEFKLKDQEAKQDEL”, the “soluble on expression in E. coli” value is reported as “soluble”.
For “MDMLKENVIQNNEARTESSVEPSHPDMMETVPEEQQKPISHIDDLLSETANLMAVKEQLLKEIAENEHIHSMQMRALQNLPQEAILPLQYHADPRRRHRMQKPESYKTVICQAWLESKTCAFAENCRFAHGEEELRPSLIEARQNNKYRTKLCDKYTTTGLCPYGKRCLFIHPDNGPNAYIRADKLFEVSQRHALADLRDQMEHHIMNGGRSTAGPQQFDMFARPCTPDEPAANMPLGPTPVSIRGPRYELPSKKPLETEEAGNRPPSSWPLDPSTFFALDSLNMATRPISPFESMLIGAAGNMQYSMLGKQSTPGGVSGYSSSGSTPSQDSDSSPLTAASAAADAACQANSESAQSILLKSINNPMIGNETTLPIPGLDQLAMDIAKHLELW”, the “soluble on expression in E. coli” value was “not soluble”.
With “MDMTYNMRNAMASSRNMEEPQYDMSTIDLTQNSMNTNYLMNGSVLTNAYNNDYIVNNRDKYTGDMISQLKIDQGIPTYSHTLPMNGTTLADTNDSLNIQGMMRTNMDTTGFDGYSHIMNYNNTQNTIQTNPITYRMEDYNNLNNDVMYINPTTGEKFSAEYVNNIPTNDSDNMLYSNNFKNNSINMNTLLNSHYNNLPYPMPIYESMNNPQMYMQHMNQKQTVNIPLQHGEKKSAARNISTVNKRRIKTKKFFPCC” the “soluble on expression in E. coli” value was “not soluble”.
In the case of “MDNEEYYKILGVAKSASQDEIKHAYRKMSKKYHPDLNHQPGAEDKYKQVQEAYETLGDPQKRAAYDQYGKAGANANNGQGGFGGFQQSGFNFNGQDFGDFSDIFSQMFGGSFNPNAPRKGRDLQYRINLTFEEAVFGKETEIKYVRQESGGNSKEHTVKVTIPAGVETGQQMRLAGQGEAGTHGGPYGDLYVEFIVGKSKDGFERQGANIYLEEPINFVQAALGDKIKVKTVHGDVELTIPAGTQTDTEFRLRGKGAPYVNSSRIGDEYVKVIVQVPKRLNEKEKKALKTYADLRGENVNPQKRRGLFG”, the “soluble on expression in E. coli” value is reported as “not soluble”.
For “MDNHKCVLVIDKALPQGLIANTAAVLTLSLGKLHPELIGADNVNKNGEIHTGITSIPIPILASSSHKIKEIRASLKEEATLVDFSNVAQTTKNYQDYSDKLAATRPEDIEYLGIAIYGTKKIINKHTGNLGLIRLEHHHHHH”, the “soluble on expression in E. coli” value was “soluble”.
With “MDNQKRPFTTRFDHYNYNVLNLERSLAFYDRAFGFREVKRKEAADGSFILVYLGDVYGHFLLELTWLRDRKEPYNLGENEVHLCVRTTGDYDAVREYHRAMGCICYENEQMGLYFVNDPDGYWIEVLPENRD” the “soluble on expression in E. coli” value was “not soluble”.
In the case of “MDPALAAQMSEAVAEKMLQYRRDTAGWKICREGNGVSVSWRPSVEFPGNLYRGEGIVYGTLEEVWDCVKPAVGGLRVKWDENVTGFEIIQSITDTLCVSRTSTPSAAMKLISPRDFVDLVLVKRYEDGTISSNATHVEHPLCPPKPGFVRGFNHPCGCFCEPLPGEPTKTNLVTFFHTDLSGYLPQNVVDSFFPRSMTRFYANLQKAVKQFHE”, the “soluble on expression in E. coli” value is reported as “soluble”.
In the case of “MDPFDRPKNDNDPFEDALKRCHKILEKLDCPFVTGKEKDLDESDDMTENEDHDEMANEDDGIPSNEKKVETRKMDCTSGQLLAPKLPEKAESISSASESSEDSESVAILKYTVRTCYAIWKKRQKNSEIALKGLMIVLELCLSQPSARDDAFSALLETLGYNTVTFWKAVVPQIYNSDLSYATQYREALLFSLVLYDVNHSKNRLRELYAAVPGVRQSMLGIRAKQFGERYRHLQMKIARSRASSRMSSKMGSEENLPAMASMMNDVVFDEEPHTQSPLVDMSHDKQRVINVSNAPPVSISRKTSGSWEIKQGSGGLVACVDPVMSADKKNIWLSNLGVNMQEELKEHSTSTNSLGLPLIKQACAGEVFCVLERNEKKEELTPKQQAVESDMSLLSVLNTYNKHSYQLNPVVVNQDDYNTYYGGISNGLLWPALHNLPQYISPCFDDPELLREQWCAYVRVNYLFAINAARNSRAQDFIWIHDYHLMLCGQIMRSLESSLDIGFFIHIPFQPPANFMTKYKTVADPIMRALLRFTKVGFQTSRDRDTFVKLVAKHIKRTKIEYDSRLDRYTIEHDGWTCSLGVFPVSIKIADFVNIAKNPQTIIEAEEIKKQIMGRSADGGQLFFSVERFDYTKGISEKLRAWQRYFEKYPDRIGKDVLFQVAVTNRRSVDSYRQYQDDVLAVADLINQKFKSEDYPEWKPVIFETDGLPRTRLIAHYLAMDIGVVTPSKDGMNLVAKEMLVCNPTASLVLSTGAGTEVQLSNAQFYSEQEGKCYHRVEEISNTEAFADNFFAAATESKETRTKHGEKINQFLCVHDIDEWSDQFLDPKWTHEVISQCEVKQLGQFYGLMSRTAQVRRQIVECVLKGLPIRPHFRYSLENAKNSLESSCKSGTKLSLEADEESGEEKGFEITYDIHDELSEMEKDLAFLAFIQSDEYENAEEFIKTLGSFYEGGPVLFKNEVKQAAEMLQQGIHYNTFFTDRDGTLKSYACSYPTSVQPAYSAVIQAQFARRCATFCAIVTTAPLLHTGILEVATIPEGYYAYGASAGREWYLNPAQQFKDRSFSAIDLNLMNKVFDIIEELLERPEFRIFKWIGSGIQKHCGHITIAKQDVNGTIPSRKVIRLYEQLVKIVNDFDPNGTTLTMRESDLDFKIYVKAKLKGRIFNKGHGIRLVRERLKPNMSKGNCLVCGDNESDIPMLEECLKLAGSKVYTIWVTADTNLQEKVTQLCDRFSCSNIHFVSCPQVLLGAMAYATAHTLVDERNRKLDYYYDSDTPMDQEESSTLGASLGTSFGN”, the “soluble on expression in E. coli” value is reported as “not soluble”.
